In paper PMC12114895, “Lanthanides-Based Nanoparticles Conjugated with Rose Bengal for FRET-Mediated X-Ray-Induced PDT” (Pharmaceuticals, 2025):
Ends that are not written are not given here. RB = not defined here

Experiments:
NRP-1 = NRP-1 (Homo sapiens, UniProt O14786); experiment: NRP-1 binding, competitive assay; conditions: printed in the figure, read-out: IC50 ± SD (NRP-1, Figure 12)
Method: The affinity of AGuIX Ln@Mal-K(RB) and AGuIX Ln@Mal-K(RB)DKPPR to NRP-1 was determined as previously described in terms of IC50 in another study.

Zeta potential = format: physicochemical; conditions: DLS, Zetasizer Nano-Z, He-Ne 633 nm; pH 7.2 mentioned; listed as AGuIX Ln@Mal-K(RB)DKPPR (Ln = Tb)
Method: The zeta potential (ξ) for each NPs was determined using Zetasizer Nano-Z (Malvern, UK) equipped with a He-Ne laser at 633 nm.

[1] = Hydrodynamic size by TDA-ICP-MS; format: physicochemical; conditions: Table 4, listed as AGuIX Ln@Mal-K(RB)DKPPR (Ln = Tb)
Method: TDA experiments were conducted using a TDA-ICP-MS hyphenation between a Sciex P/ACE MDQ instrument and a 7700 Agilent ICP-MS. Fused silica capillaries with an inner diameter of 75 µm and outer diameter of 375 µm, and a total length of 64 cm, were coated with hydroxypropylcellulose (HPC) using a solution of 0.05 g mL^−1 in water. Detection was carried out by ICP-MS at m/z = 158 and m/z = 159 for Gd and Tb detection, respectively. Samples were hydrodynamically injected (0.3psi for 3 s), then mobilized using Tris 10 mM and NaCl 125 mM at 0.7 psi. Between runs, the capillary was flushed at 5 psi for 5 min with the mobilization medium. All measurements were performed at least in duplicates.
The detected peak was fitted by a sum of Gaussian distributions using Origin 8.5 software, according to Equation (8).(8) St=∑i=12Ai/σi 2πexp−t−t0^2/2σi2 where t0 is the peak residence time, and […] are the area under the curve and the temporal variance associated with each species i, respectively.
Under these experimental conditions, the molecular diffusion coefficient D is given by(9) D=Rc2t0/24σ^2=2kBT/6πηDh where Rc is the capillary radius, kB is the Boltzmann constant, T is the temperature, η is the viscosity, and Dh is the hydrodynamic diameter of the solute.
Therefore, using Equation (9), the hydrodynamic diameters can be calculated from the temporal variances measured from the fitted Taylorgram.

RB fluorescence lifetime = format: physicochemical; conditions: D2O, λexc = 470 nm; listed as AGuIX Ln@Mal-K(RB)DKPPR (Ln = Tb)
Method: The Ln luminescence lifetime is recorded after excitation at 545 nm for Tb and 313 nm for Gd. The fluorescence lifetime of RB is recorded after excitation at 470 nm ( τf470 ). ^1O2 emission spectra are obtained after excitation at 558 nm (maximum absorption wavelength of RB) but also after excitation at 351 nm for Tb and 273 nm for Gd.
(§1) Absorption spectra were recorded on a UV-3600 UV–visible double beam spectrophotometer (Shimadzu, Marne-La-Vallée, France). Fluorescence spectra were recorded on a Fluorolog FL3-222 spectrofluorimeter (Horiba Jobin Yvon, Palaiseau, France) equipped with a 450 W Xenon lamp and thermostated cell compartment (25 °C), a UV–visible photomultiplier R928 (Hamamatsu Photonics, Hamamatsu, Japan) and an InGaAs infrared detector (DSS-16A020L Electro-Optical System Inc, Phoenixville, PA, USA). The excitation beam was diffracted by a double ruled grating SPEX monochromator (1200 grooves/mm blazed at 330 nm). The emission beam was diffracted by a double ruled grating SPEX monochromator (1200 grooves/mm blazed at 500 nm). Singlet oxygen emission was detected through a double ruled grating SPEX monochromator (600 grooves/mm blazed at 1 µm) and a long-wave pass (780 nm). All spectra were measured in four-face quartz vials.

Ln luminescence lifetime = format: physicochemical; conditions: D2O, λexc/λdetection = 351/545 nm
[2] = Singlet oxygen production quantum yield; format: physicochemical; conditions: D2O, reference Eosin Y
[3] = Fluorescence quantum yield; format: physicochemical; conditions: D2O, λexc = 558 nm; reference tetraphenylporphyrin
Method: as §1
The fluorescence quantum yield (Φf) is calculated using Equation (6).(6) Φf=Φf0 . If/If0.OD0/OD. (n/n0)^2 where Φf and Φf0, If and If0, OD and OD0, n and n0 are the quantum yields, fluorescence intensities, optical densities, and refractive indices of the sample and reference, respectively.
Tetraphenylporphyrin (TPP) was chosen as the fluorescence reference standard (Φf0 = 0.11, toluene).

U-251 MG cells = experiment: Anchorage-dependent clonogenic assay with X-ray irradiation; format: cell-based, human; conditions: [RB] = 1 µM, 24 h, clones after 7 days

Sequence of NRP-1 (O14786 22-923): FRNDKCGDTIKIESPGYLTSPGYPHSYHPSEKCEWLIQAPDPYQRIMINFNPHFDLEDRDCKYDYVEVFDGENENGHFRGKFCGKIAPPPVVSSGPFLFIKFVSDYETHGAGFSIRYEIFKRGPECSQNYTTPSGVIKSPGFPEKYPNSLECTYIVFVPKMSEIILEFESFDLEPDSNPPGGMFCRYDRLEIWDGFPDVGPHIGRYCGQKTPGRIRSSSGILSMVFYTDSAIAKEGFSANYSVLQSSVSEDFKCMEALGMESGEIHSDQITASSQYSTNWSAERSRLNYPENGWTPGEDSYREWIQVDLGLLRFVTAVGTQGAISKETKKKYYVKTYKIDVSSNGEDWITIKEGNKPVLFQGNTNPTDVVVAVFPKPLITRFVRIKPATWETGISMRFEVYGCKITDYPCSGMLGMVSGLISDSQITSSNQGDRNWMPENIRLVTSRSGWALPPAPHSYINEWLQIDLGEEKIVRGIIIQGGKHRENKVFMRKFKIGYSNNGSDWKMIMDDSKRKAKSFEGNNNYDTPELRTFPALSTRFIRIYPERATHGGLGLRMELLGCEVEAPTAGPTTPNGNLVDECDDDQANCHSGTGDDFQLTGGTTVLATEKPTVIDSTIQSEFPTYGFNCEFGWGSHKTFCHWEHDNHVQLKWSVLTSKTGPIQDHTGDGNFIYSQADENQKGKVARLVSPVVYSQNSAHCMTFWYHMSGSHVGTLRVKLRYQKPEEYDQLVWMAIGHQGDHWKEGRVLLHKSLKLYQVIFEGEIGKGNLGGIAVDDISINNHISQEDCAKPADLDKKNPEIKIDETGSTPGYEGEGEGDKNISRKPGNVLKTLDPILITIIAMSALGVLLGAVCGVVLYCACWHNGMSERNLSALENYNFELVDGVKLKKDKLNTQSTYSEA

Substance | IC50 (NRP-1) | Zeta potential (ζ) (Zeta potential) | percentage of population P1 [1] | percentage of population P2 [1] | Size, population P1 ([1]; Tris 10 mM and NaCl 125 mM) | Size, population P2 ([1]; Tris 10 mM and NaCl 125 mM) | RB fluorescence lifetime τf470 (RB fluorescence lifetime) | Ln luminescence lifetime τL (Tb) (Ln luminescence lifetime) | ^1O2 quantum yield ΦΔ351(Tb) ([2]; λexc = 351 nm) | ^1O2 quantum yield ΦΔ558 ([2]; λexc = 558 nm, listed as AGuIX Ln@Mal-K(RB)DKPPR (Ln = Tb)) | Fluorescence quantum yield Φf558 [3] | Cell survival (clonogenic capability relative to control) (U-251 MG cells; X-ray 2 Gy (320 kV, 10 mA, 3 Gy/min), fraction of untreated non-irradiated cells, mean, triplicates from 3 experiments (n = 9)) | decrease of cell growth (clones) (U-251 MG cells; X-ray 2 Gy, p = 0.02)
Mal-K(RB)DKPPR [AGuIX Tb@Mal-K(RB)DKPPR] (not fully specified (N-terminus); printed as AGuIX Tb@Mal-K(RB)DKPPR; reading uncertain) [Mal-K(RB)DKPPR conjugated to thiolated AGuIX Tb NPs by thiol-maleimide click chemistry] | 6 ± 1.3 nM |  |  |  |  |  |  |  |  |  |  |  | 
Mal-K(RB)DKPPR [AGuIX Tb@Mal-K(RB)DKPPR, Mal-K(RB)DKPPR conjugated to thiolated AGuIX Tb NPs by thiol-maleimide click chemistry] |  | −14 mV | 46% | 54% | 5.4 nm | 32.0 nm | 2.8 ns | 345 µs | 0.36 | 0.68 | 0.11 | 0.43 | 57%
